For 94 variants, protein stability index results are on record in the supplement of paper PMC10567573.

The chains are these.
B1: FUT8 (parent)
chain: NWRYATGGWETVFRPVSETCTDRS
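Further: lentivirally expressed fusions sorted by FACS into six bins by GFP to DsRed ratio, PSI derived from sequencing read proportions per bin multiplied by bin number.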

The variants in this data set derive from B1. The data set is described as follows: protein stability index of a GFP-peptide fusion (GPS, HEK-293T) (PSI 1-6); higher = more stable. The note with it: c terminus: a fixed tail appended.
For the variant NWRYATGGWETVFRPVDETCTDRS [S17D], the protein stability index stood at 2.33.
The same measure for NWRYATGGWETVFRPVFETCTDRS [S17F]: 2.77; for NWRYATGGWETVFRPVCETCTDRS [S17C]: 3.15.
The same measure for NWRYATGGWETVFRPVHETCTDRS [S17H]: 1.85; for NWRYATGGWETVFRPVAETCTDRS [S17A]: 2.34.
In the case of NWRYATGGWETVFRPVYETCTDRS [S17Y] it was 1.53.
Consider NWRYATGGWETVFRPVTETCTDRS [S17T], for which the protein stability index worked out at 1.64.
The same measure for NWRYATGGWETVFRPVQETCTDRS [S17Q]: 2.67; for NWRYATGGWETVFRPVWETCTDRS [S17W]: 2.42; for NWRYATGGWETVFRPVRETCTDRS [S17R]: 1.88.
The same measure for NWRYATGGWETVFRPVGETCTDRS [S17G]: 3.4.
As to NWRYATGGWETVFRPVIETCTDRS [S17I], the protein stability index stood at 1.28.
In the case of NWRYATGGWETVFRPVMETCTDRS [S17M], the protein stability index was found to be 1.28.
The same measure for NWRYATGGWETVFRPVNETCTDRS [S17N]: 2.29; for NWRYATGGWETVFRPVSETCTDKS [R23K]: 1.92.
In the case of NWRYATGGWETVFRPVSETCTDHS [R23H] it was 3.12.
In the case of NWRYATGGWETVFRPVSETCTDGS [R23G] it was 1.6; in that of NWRYATGGWETVFRPVSETCTDES [R23E], 1.75; in that of NWRYATGGWETVFRPVSETCTDFS [R23F], 1.77.
NWRYATGGWETVFRPVSETCTDAS [R23A]: the protein stability index stood at 2.36.
In the case of NWRYATGGWETVFRPVSETCTDMS [R23M] it was 2.34; in that of NWRYATGGWETVFRPVSETCTDYS [R23Y], 2.49; in that of NWRYATGGWETVFRPVSETCTDNS [R23N], 1.44.
NWRYATGGWETVFRPVSETCTDDS [R23D]: the protein stability index was 2.41.
In the case of NWRYATGGWETVFRPVSETCTDLS [R23L] it was 3.42; in that of NWRYATGGWETVFRPVSETCTDVS [R23V], 2.89.
Turning to NWRYATGGWETVFRPVSETCTDWS [R23W], the protein stability index was 1.91.
In the case of NWRYATGGWETVFRPVSETCTDPS [R23P] it was 2.08.
In the case of NWRYATGGWETVFRPVSETCTDSS [R23S] it was 1.56; in that of NWRYATGGWETVFRPVSETCTDIS [R23I], 1.21.
The same measure for NWRYATGGWETVFRPVSETCTDTS [R23T]: 2.02.
As to NWRYATGGWETVFRPVSETCTRRS [D22R], the protein stability index was found to be 1.84.
The same measure for NWRYATGGWETVFRPVSETCTIRS [D22I]: 2.98.
In the case of NWRYATGGWETVFRPVSETCTCRS [D22C] it was 1.93; in that of NWRYATGGWETVFRPVSETCTKRS [D22K], 2.12; in that of NWRYATGGWETVFRPVSETCTPRS [D22P], 1.48.
With NWRYATGGWETVFRPVSETCTHRS [D22H], the protein stability index came to 1.45.
The same measure for NWRYATGGWETVFRPVSETCTTRS [D22T]: 3.48.
In the case of NWRYATGGWETVFRPVSETCTNRS [D22N] it was 1.24; in that of NWRYATGGWETVFRPVSETCTERS [D22E], 2.33; in that of NWRYATGGWETVFRPVSETCTSRS [D22S], 2.43.
The same measure for NWRYATGGWETVFRPVSETCTYRS [D22Y]: 2.07.
As to NWRYATGGWETVFRPVSETCTQRS [D22Q], the protein stability index was 1.69.
As for NWRYATGGWETVFRPVSETCTWRS [D22W], the protein stability index was 1.25.
The same measure for NWRYATGGWETVFRPVSETCTMRS [D22M]: 1.9; for NWRYATGGWETVFRPVSETCTVRS [D22V]: 1.54; for NWRYATGGWETVFRPVSETCTLRS [D22L]: 1.7.
With NWRYATGGWETVFRPVSETYTDRS [C20Y], the protein stability index was found to be 2.24.
The same measure for NWRYATGGWETVFRPVSETSTDRS [C20S]: 1.75.
The same measure for NWRYATGGWETVFRPVSETQTDRS [C20Q]: 1.84; for NWRYATGGWETVFRPVSETMTDRS [C20M]: 2.33.
For NWRYATGGWETVFRPVSETLTDRS [C20L], the protein stability index came to 1.44.
Take NWRYATGGWETVFRPVSETNTDRS [C20N]: the protein stability index is 2.6.
Turning to NWRYATGGWETVFRPVSETITDRS [C20I], the protein stability index was 1.63.
The same measure for NWRYATGGWETVFRPVSETFTDRS [C20F]: 1.84; for NWRYATGGWETVFRPVSETVTDRS [C20V]: 1.88.
On to NWRYATGGWETVFRPVSETHTDRS [C20H], for which the protein stability index amounted to 4.01.
Turning to NWRYATGGWETVFRPVSETTTDRS [C20T], the protein stability index was found to be 1.04.
The same measure for NWRYATGGWETVFRPVSETWTDRS [C20W]: 3.63.
As to NWRYATGGWETVFRPVSETATDRS [C20A], the protein stability index amounted to 3.39.
In the case of NWRYATGGWETVFRPVSETPTDRS [C20P] it was 1.81; in that of NWRYATGGWETVFRPVSETDTDRS [C20D], 2.3; in that of NWRYATGGWETVFRPVSEFCTDRS [T19F], 1.85.
For the variant NWRYATGGWETVFRPVSEICTDRS [T19I], the protein stability index was determined as 2.22.
On to NWRYATGGWETVFRPVSEYCTDRS [T19Y], for which the protein stability index stood at 3.12.
In the case of NWRYATGGWETVFRPVSELCTDRS [T19L] it was 2.3.
In the case of NWRYATGGWETVFRPVSENCTDRS [T19N] it was 2.09; in that of NWRYATGGWETVFRPVSERCTDRS [T19R], 2.24.
The same measure for NWRYATGGWETVFRPVSECCTDRS [T19C]: 1.42; for NWRYATGGWETVFRPVSESCTDRS [T19S]: 2.5; for NWRYATGGWETVFRPVSEPCTDRS [T19P]: 1.83.
As to NWRYATGGWETVFRPVSEQCTDRS [T19Q], the protein stability index worked out at 2.37.
In the case of NWRYATGGWETVFRPVSEGCTDRS [T19G] it was 2.72; in that of NWRYATGGWETVFRPVSEKCTDRS [T19K], 1.84.
In the case of NWRYATGGWETVFRPVSEECTDRS [T19E] it was 2.86; in that of NWRYATGGWETVFRPVSEMCTDRS [T19M], 1.21; in that of NWRYATGGWETVFRPISETCTDRS [V16I], 2.37.
The same measure for NWRYATGGWETVFRPQSETCTDRS [V16Q]: 2.28; for NWRYATGGWETVFRPTSETCTDRS [V16T]: 1.61.
Turning to NWRYATGGWETVFRPMSETCTDRS [V16M], the protein stability index was found to be 2.47.
On to NWRYATGGWETVFRPLSETCTDRS [V16L], for which the protein stability index was 1.57.
For the variant NWRYATGGWETVFRPNSETCTDRS [V16N], the protein stability index was 1.78.
In the case of NWRYATGGWETVFRPYSETCTDRS [V16Y] it was 1.96.
In the case of NWRYATGGWETVFRPRSETCTDRS [V16R] it was 1.19.
As to NWRYATGGWETVFRPPSETCTDRS [V16P], the protein stability index was 1.97.
The same measure for NWRYATGGWETVFRPKSETCTDRS [V16K]: 2.73.
Consider NWRYATGGWETVFRPWSETCTDRS [V16W], for which the protein stability index came out at 2.01.
In the case of NWRYATGGWETVFRPVSETCTDRY [S24Y] it was 1.86; in that of NWRYATGGWETVFRPVSETCTDRK [S24K], 2.6.
The same measure for NWRYATGGWETVFRPVSETCTDRQ [S24Q]: 2.72; for NWRYATGGWETVFRPVSETCTDRV [S24V]: 2.67.
For NWRYATGGWETVFRPVSETCTDRI [S24I], the protein stability index was determined as 1.71.
The same measure for NWRYATGGWETVFRPVSETCTDRR [S24R]: 1.47; for NWRYATGGWETVFRPVSETCTDRL [S24L]: 2.3.
